Test results published in US20180037631A1 (Bristol-Myers Squibb, published 2018).
Positions count from the first letter of the chain named.

B1: E95 (designed binder)
10Fn3 domain: MGVSDVPRDLEVVAATPTSLLISWVVPQGMYQYYRITYGETGGNSPVQEFTVPGGVSTATISGLKPGVDYTITVYAVTDYFNPATHEYNYHSIPISINYRTEIDKPSQ
B2: E96 (designed binder)
10Fn3 domain: B1 10Fn3 domain with V25A, V26S, P27N, Q28R, M30T, Y80A, A84T, H91F, S92T, I93T
B3: E85-GS10-I1 pegylated (designed binder)
E/I tandem 10Fn3 chain: MGVSDVPRDLEVVAATPTSLLISWTQGSTHYQYYRITYGETGGNSPVQEFTVPGMVYTATISGLKPGVDYTITVYAVTDYFDRSTHEYKYRTTPISINYRTEIDKGSGSGSGSGSGSGSGSGSGSVSDVPRDLEVVAATPTSLLISWSARLKVARYYRITYGETGGNSPVQEFTVPKNVYTATISGLKPGVDYTITVYAVTRFRDYQPISINYRTEIDKPCQHHHHHH
modifications: Cys of the C-terminal Cys tail conjugated to 40 kDa branched PEG
B4: E92 (designed binder)
10Fn3 domain: MGVSDVPRDLEVVAATPTSLLISWQAANHSYQYYRITYGETGGNSPVQEFTVPGGVRTATISGLKPGVDYTITVYAVTDFFNPVTHEYKYRTIPISINYRTEIDKPSQ
B5: E96-GS10-I1 pegylated (designed binder)
E/I tandem 10Fn3 chain: MGVSDVPRDLEVVAATPTSLLISWASNRGTYQYYRITYGETGGNSPVQEFTVPGGVSTATISGLKPGVDYTITVYAVTDAFNPTTHEYNYFTTPISINYRTEIDKGSGSGSGSGSGSGSGSGSGSVSDVPRDLEVVAATPTSLLISWSARLKVARYYRITYGETGGNSPVQEFTVPKNVYTATISGLKPGVDYTITVYAVTRFRDYQPISINYRTEIDKPCQHHHHHH
modifications: Cys of the C-terminal Cys tail conjugated to 40 kDa branched PEG
B6: I1-GS10-E112 pegylated (designed binder)
I/E tandem 10Fn3 chain: MGVSDVPRDLEVVAATPTSLLISWSARLKVARYYRITYGETGGNSPVQEFTVPKNVYTATISGLKPGVDYTITVYAVTRFRDYQPISINYRTEIDKGSGSGSGSGSGSGSGSGSGSVSDVPRDLEVVAATPTSLLISWDAGAVTYQYYRITYGETGGNSPVQEFTVPGGVRTATISGLKPGVDYTITVYAVTDYKPHADGPHTYHEYPISINYRTEIDKPCQHHHHHH
modifications: Cys of the C-terminal Cys tail conjugated to 40 kDa branched PEG
B7: E90-GS10-I1 pegylated (designed binder)
E/I tandem 10Fn3 chain: MGVSDVPRDLEVVAATPTSLLISWYWEGLPYQYYRITYGETGGNSPVQEFTVPRDVNTATISGLKPGVDYTITVYAVTDWYNPDTHEYIYHTIPISINYRTEIDKGSGSGSGSGSGSGSGSGSGSVSDVPRDLEVVAATPTSLLISWSARLKVARYYRITYGETGGNSPVQEFTVPKNVYTATISGLKPGVDYTITVYAVTRFRDYQPISINYRTEIDKPCQHHHHHH
modifications: Cys of the C-terminal Cys tail conjugated to 40 kDa branched PEG
B8: E105-GS10-I1 pegylated (designed binder)
E/I tandem 10Fn3 chain: MGVSDVPRDLEVVAATPTSLLISWDAPTSRYQYYRITYGETGGNSPVQEFTVPGGLSTATISGLKPGVDYTITVYAVTDYKPHADGPHTYHESPISINYRTEIDKGSGSGSGSGSGSGSGSGSGSVSDVPRDLEVVAATPTSLLISWSARLKVARYYRITYGETGGNSPVQEFTVPKNVYTATISGLKPGVDYTITVYAVTRFRDYQPISINYRTEIDKPCQHHHHHH
modifications: Cys of the C-terminal Cys tail conjugated to 40 kDa branched PEG
B9: E105-GS10-I1 pegylated (designed binder)
chain: B8 E/I tandem 10Fn3 chain
modifications: chain 1 pos 221: Cys carrying a maleimide-linked 40 kDa branched PEG, written C
notes: lower row of the two named E105-GS10-I1 pegylated
B10: E5-GS10-I1 pegylated (designed binder)
E/I tandem 10Fn3 chain: B8 E/I tandem 10Fn3 chain with D25W, T28V, S29D, G54R, G55D, L56V, S57Y
modifications: Cys of the C-terminal Cys tail conjugated to 40 kDa branched PEG
B11: E93 (designed binder)
10Fn3 domain: MGVSDVPRDLEVVAATPTSLLISWDSGRGSYQYYRITYGETGGNSPVQEFTVPGGVRTATISGLKPGVDYTITVYAVTDYKPHADGPHTYHEYPISINYRTEIDKPSQ
B12: E94 (designed binder)
10Fn3 domain: B11 10Fn3 domain with D25N, S26N, R28G, G29R, S30N, G54Y, G55D, R57Y
B13: E98 (designed binder)
10Fn3 domain: B11 10Fn3 domain with S26A, G27P, R28T, G29S, S30R, Y80H
B14: E97 (designed binder)
10Fn3 domain: B11 10Fn3 domain with D25L, S26P, R28K, G29L, S30R, G54H, G55D, V56L, Y93S

Key:
[1] = biological target: T1, EGFR on the surface of human tumour cells (A431, H292) (human, UniProt P00533 25-1210); assay: cell-based or functional assay
[2] = biological target: T1, EGFR on the surface of human tumour …; assay: cell-based or functional assay; remark: listed apart in the source
[3] = biological target: IGF-IR on human tumour cells (H292, MCF-7, RH41) (human, UniProt P08069 31-1367); assay: cell-based or functional assay
[4] = biological target: T2, Recombinant human EGFR-Fc (aa 1-645 of the extracellular domain of human EGFR fused to human Fc) (human, UniProt P00533 25-645)
T2 construct: range 1-645; bought from R&D Systems; also called EGFR645-Fc; EGFR-Fc (HER-1); not shown: human Fc

[5] = biological target: T3, IGF1R-Fc (extracellular domain of human IGF1R aa 1-932 fused to hinge and constant regions of human IgG1) (human, UniProt P08069 31-932)
T3 construct: range 1-932; made in house by transient transfection, purified on Protein A; also called IGF-IR-Fc; not shown: hinge and constant regions of human IgG1

[6] = biological target: T1, EGFR on the surface of human tumour …

Binder	% inhibition of EGFR phosphorylation at 100 nM binder, cell-based assay [1] [%]	IC50, EGF-induced EGFR phosphorylation, A431 cells, In Cell Western [2] [nM]	IC50, EGF-induced ERK phosphorylation, A431 cells, In Cell Western [2] [nM]	IC50, EGF-stimulated EGFR phosphorylation, H292 cells, ELISA [2] [nM]	IC50, IGF1-stimulated IGFR phosphorylation, H292 cells, ELISA [3] [nM]	Kd [4] [nM]	Kd [5] [nM]	IC50 [6] [nM]
B1	98	–	–	–	–	–	–	–
B2	91.7	–	–	–	–	–	–	–
B3	–	15	15	4	0.3	4.76	0.75	65.9
B4	88.5	–	–	–	–	–	–	–
B5	–	61	54	10	0.4	24.2	0.96	43.8
B6	–	–	–	–	0.3	–	–	–
B7	–	65	63	10	0.4	13.5	1.5	69.1
B8	–	56	61	15	0.5	9.28	1.35	75
B9	–	61	49	16	0.5	7.65	1.19	93.8
B10	–	–	–	–	0.4	–	1.16	–
B11	76.9	–	–	–	–	–	–	–
B12	78.7	–	–	–	–	–	–	–
B13	75.8	–	–	–	–	–	–	–
B14	89.3	–	–	–	–	–	–	–
